T1: mouse matriptase-2 ECD protein his tag (mouse, UniProt Q9DBI0 80-811)
T1 construct: aa 80-811 of Q9DBI0 with C-terminal linker and His tag; also called mouse MTP-2 ECD; moMTP-2
T1 sequence: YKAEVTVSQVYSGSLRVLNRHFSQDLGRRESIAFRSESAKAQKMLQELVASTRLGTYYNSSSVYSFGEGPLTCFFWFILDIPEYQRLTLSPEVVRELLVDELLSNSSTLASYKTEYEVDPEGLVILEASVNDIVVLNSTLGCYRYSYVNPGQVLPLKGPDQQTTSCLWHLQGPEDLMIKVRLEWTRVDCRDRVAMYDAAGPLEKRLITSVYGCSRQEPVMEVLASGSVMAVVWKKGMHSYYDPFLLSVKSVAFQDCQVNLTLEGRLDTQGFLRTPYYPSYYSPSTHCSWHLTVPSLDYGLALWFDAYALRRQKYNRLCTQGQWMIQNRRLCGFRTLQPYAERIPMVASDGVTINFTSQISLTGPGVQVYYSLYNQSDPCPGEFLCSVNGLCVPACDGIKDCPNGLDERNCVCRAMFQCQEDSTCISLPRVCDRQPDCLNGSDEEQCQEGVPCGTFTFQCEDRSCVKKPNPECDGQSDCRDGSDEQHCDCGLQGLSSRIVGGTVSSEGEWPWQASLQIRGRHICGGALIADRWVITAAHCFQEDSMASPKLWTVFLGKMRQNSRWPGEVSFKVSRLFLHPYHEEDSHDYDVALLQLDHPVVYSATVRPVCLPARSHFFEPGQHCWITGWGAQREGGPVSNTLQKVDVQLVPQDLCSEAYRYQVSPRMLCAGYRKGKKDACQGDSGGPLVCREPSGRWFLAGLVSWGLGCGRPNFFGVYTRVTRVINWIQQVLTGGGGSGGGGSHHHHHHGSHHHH

T2: human matriptase-2 mask ECD protein his tag (human, UniProt Q8IU80 78-576)
T2 construct: MTP-2 ECD without the serine protease domain, with C-terminal linker and His tag; also called headless huMTP-2 ECD 78-576 aa; headless human MTP-2 ECD
T2 sequence: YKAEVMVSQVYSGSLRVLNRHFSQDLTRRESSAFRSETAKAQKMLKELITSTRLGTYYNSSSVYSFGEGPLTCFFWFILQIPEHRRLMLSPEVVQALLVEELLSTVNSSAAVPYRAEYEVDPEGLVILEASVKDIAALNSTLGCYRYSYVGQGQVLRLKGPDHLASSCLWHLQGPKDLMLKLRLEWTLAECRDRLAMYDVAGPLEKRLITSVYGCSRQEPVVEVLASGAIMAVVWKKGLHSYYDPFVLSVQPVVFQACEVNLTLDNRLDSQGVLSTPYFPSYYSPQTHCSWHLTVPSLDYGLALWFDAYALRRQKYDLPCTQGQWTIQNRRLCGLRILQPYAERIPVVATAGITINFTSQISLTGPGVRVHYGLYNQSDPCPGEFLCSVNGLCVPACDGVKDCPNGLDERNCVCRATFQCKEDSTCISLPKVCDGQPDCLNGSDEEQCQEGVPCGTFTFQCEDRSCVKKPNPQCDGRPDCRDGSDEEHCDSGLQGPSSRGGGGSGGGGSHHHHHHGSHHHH


What was measured:
[1] = molecular target: T1, mouse matriptase-2 ECD protein his tag; test: SPR, his-tagged MTP-2 ECD protein (Table W); true KD could not be measured accurately, very slow off-rate
Description: (§1) Off-rate screening was performed by surface plasmon resonance (SPR), using a Biacore 8K system (GE Healthcare). Anti-human Fc mix (˜1000 RU) were immobilised in both active and reference channels in HBS-P+ buffer (GE BR100671) pH 7.4. Anti-MTP-2 hulgG4PE antibodies were then captured for 60 sec at 10 μl/min at 1 μg/ml concentration (approximatively 35 and 50 RU were captured) only on the active channel. MTP-2 ECD protein analytes were then injected (at 100, 25, 6.25, 1.56 and 0 nM concentrations) for 120 sec (association time) at 30 μl/min and dissociation monitored for 600 sec. Multiple cycle kinetics mode was used with all 8 channels being used. Reference and background were subtracted from the sensorgrams for each antibody and data was fitted using a 1:1 interaction model in the Biacore evaluation software. Rmax, ka, kd globally fitted, RI=0.
NORI-011, NORI-008, NORI-003 and NORI-006 were all found to have cross-reactive binding to human, mouse, cyno and rat MTP-2 ECD proteins. […] The true KD value for NORI-008 could not be measured accurately for human or mouse MTP-2 due to a very slow off-rate.

[2] = molecular target: T1, mouse matriptase-2 ECD protein his tag; test: HTRF competition with 647-labelled aprotinin for mouse MTP-2 protein
Source text: Aprotinin is a pan serine protease inhibitor and is known to occupy the active site of serine proteases. A HTRF competition assay against labelled aprotinin confirmed that NORI-003, NORI-006, NORI-008 and NORI-011 were binding at or near this same site and competed with aprotinin for binding to human MTP-2 protein. […] This was confirmed by their lack of competition of aprotinin against moMTP-2 while IC50 values in the enzymatic assay were similar to those of NORI-011. […] FIG. 8. Table L.
Antibodies were titrated into HTRF buffer (DPBS (Gibco—14190144) with 0.1% BSA (Sigma—A7906) and potassium fluoride 0.53M (Sigma—60240-250 G)) at 4× conc with a starting concentration of 200 nM. 5 μL/w of antibodies were added to 384-well white plates (Greiner—784904). Purified proteins of huMTP-2 and moMTP-2 were diluted into HTRF buffer (huMTP-2=40 nM and moMTP-2=240 nM) 4× final conc and plate 5 μL/w. Anti-MTP-2 mAb (NORI-037) in molgG1 backbone was then diluted to 1.2 nM 4× final conc with DELFIA Eu-N1 Rabbit Anti-Mouse-IgG antibody (AD0207) at a 1:1000 dilution 4× final conc in HTRF buffer. Finally, dilute 647-labelled Aprotinin (Sigma—A3428) in HTRF buffer to 20 nM 4× final conc and plate 5 μL/w. Incubate plates for 3 hours or more at RT in the dark. Read plate using HTRF 100 flashes protocol on the EnVision plate reader at 1H 2H and 3H. (Ex: 340 nm Em1: 620 nm Em2: 665 nm).

[3] = molecular target: T2, human matriptase-2 mask ECD protein his …; test: SPR, antibody captured, headless ECD as analyte
Description: as §1
Binding was also assessed using the above SPR method with “headless” huMTP-2 ECD 78-576 aa instead of the full ECD. Headless ECD corresponds to the MTP-2 ECD without the serine protease domain.

[4] = molecular target: T1, mouse matriptase-2 ECD protein his tag; test: SPR (Biacore 8K), huIgG4PE captured on anti-human Fc, MTP-2 ECD as analyte, 1:1 fit; true KD could be < the value shown
Description: as §1

| Binder | Kd [1] [nM] | IC50 [2] [nM] | binding result [3] | Kd [4] [nM] |
| --- | --- | --- | --- | --- |
| NORI-008 (antibody, human IgG4 S228P, kappa, V domains shown, human IgG4PE, kappa, in the in vitro assays; a mouse IgG1 format was used in one in vivo study only; also called NORI-008 hulgG4PE; NORI-008 IgG) VH: QVQLQESGPGLVKPSETLSLTCSVSGGSVSSGRYYWTWIRQPPGKGLEWIGYISNSGNTNYNPSLKSRVTISLDTSKKQFSLSLSAVTAADTAVYYCARGFIYDYWFDPWGQGSLVTVSS VL: DSQMTQSPSSLSASVGDRVTITCQASQDIDNYLNWYQQRPGKAPKLLIYDASKLETGVPSRFSGSGSGTDFTFTISSLQPEDFATYYCQQYGNLPITFGQGTRLDIKR | 0.000206 | 1.42 |  |  |
| NORI-013 (antibody, human IgG4 S228P, lambda, V domains shown, human IgG4PE, lambda) VH: EVQLVESGGGLIQAGRSLRLSCAASGFTFDEHVIYWVRQIPGKGLEWISSISWKSDIIAYADSVKGRFTISRDNAKNALYLQMNSLRAEDTALYYCAREKDGDFYYYYFAMDVWGQGTTVTVSS VL: QSALTQPPSASGSPGQSVTLSCTGTSSDVGYYNYVSWYLQHPGKAPKLMIYEVSKRPSGVPDRFSGSKSANTASLTVSGLQAEDEADYYCSSYAGSNKVVFGGGTKVTVLG |  |  | no binding (tested: analyte up to 100 nM) | ≤ 0.949 |
| NORI-014 (antibody, human IgG4 S228P, lambda, V domains shown, human IgG4PE, lambda) VH: EVQLVESGGGLIQAGRSLRLSCAASGFTFDEHVMYWVRQIPGKGLEWISSITWKSDIIAYADSVKGRFTISRDNAKNALYLQMNSLRAEDTALYYCAREKDGDFYYYYFAMDVWGQGTTVTVSS VL: QSALTQPPSASGSPGQSVTLSCTGTSSDVGYYNYVSWYLQHPGKAPKLMIYEVSKRPSGVPDRFSGSKSANTASLTVSGLQAEDEADYYCSSYAGSNKVVFGGGTKVTVLG |  |  | no binding (tested: analyte up to 100 nM) | ≤ 0.83 |
| NORI-011 (antibody, human IgG4 S228P, lambda, human IgG4PE, lambda; NORI-010 with a P124S mutation in the VH domain) heavy: not shown light: QSALTQPPSASGSPGQSVTISCTGTSSDVGFYNFVSWYQQHPDKAPKVMIYEVSKRPSGVPDRFSGSKSGNTASLTVSGLQAEDEADYYCSSYAGSNKVVFGGGTKLTVLGQPKAAPSVTLFPPSSEELQANKATLVCLISDFYPGAVTVAWKADSSPVKAGVETTTPSKQSNNKYAASSYLSLTPEQWKSHRSYSCQVTHEGSTVEKTVAPTECS |  | 120 |  |  |

Source: patent US20230025129A1 (KYMAB, published 2023)
